The record followed here is PMC3475689, “Leishmania donovani Argininosuccinate Synthase Is an Active Enzyme Associated with Parasite Pathogenesis” (PLoS Neglected Tropical Diseases, 2012).

For experiment [1], the target named is T1, LdASS (V5His-LdASS^WT) (Leishmania donovani, UniProt H9BG20).
T1 construct: full length (419 residues predicted, 46 kDa), N-terminal V5 and His6 tags kept; overexpressed in L. donovani amastigotes, Ni-NTA pull-down, assayed on beads; tetramer inferred from other ASS; CBZ34226.1 (BPK282A1) stated identical
Description: malachite green Pi release, pyrophosphatase-coupled. Particulars: read-out: % inhibition at 1 mM. It counts as biochemical.

Experiment [2] has as its target V5His-LdASS^G128S, recombinant Leishmania donovani argininosuccinate synthase G128S with N-terminal V5 epitope and hexahistidine tags (Leishmania donovani). Briefly: ELISA; plates coated with 100 µL of 10 µg/mL LdIMPDH or LdASS variant in PBS, 4°C, 16 h; blocked with 2% BSA; purified LdPEX5 at 0.01-400 nM; bound LdPEX5 detected with anti-LdPEX5 polyclonal antisera; apparent Kd. A general note: An ELISA detects its analyte on a solid surface through an enzyme-linked reagent.

The target in experiment [3] is T2, LdPEX5, PTS1 receptor protein peroxin 5 of Leishmania donovani, recombinant (Leishmania donovani, UniProt A0A3S7X906 1-625).
T2 construct: Peroxin 5 (LdPEX5), the PTS1 receptor of Leishmania donovani; construct not described here; also called receptor peroxin 5; glycosomal PTS1 targeting receptor protein
T2 sequence (looked up): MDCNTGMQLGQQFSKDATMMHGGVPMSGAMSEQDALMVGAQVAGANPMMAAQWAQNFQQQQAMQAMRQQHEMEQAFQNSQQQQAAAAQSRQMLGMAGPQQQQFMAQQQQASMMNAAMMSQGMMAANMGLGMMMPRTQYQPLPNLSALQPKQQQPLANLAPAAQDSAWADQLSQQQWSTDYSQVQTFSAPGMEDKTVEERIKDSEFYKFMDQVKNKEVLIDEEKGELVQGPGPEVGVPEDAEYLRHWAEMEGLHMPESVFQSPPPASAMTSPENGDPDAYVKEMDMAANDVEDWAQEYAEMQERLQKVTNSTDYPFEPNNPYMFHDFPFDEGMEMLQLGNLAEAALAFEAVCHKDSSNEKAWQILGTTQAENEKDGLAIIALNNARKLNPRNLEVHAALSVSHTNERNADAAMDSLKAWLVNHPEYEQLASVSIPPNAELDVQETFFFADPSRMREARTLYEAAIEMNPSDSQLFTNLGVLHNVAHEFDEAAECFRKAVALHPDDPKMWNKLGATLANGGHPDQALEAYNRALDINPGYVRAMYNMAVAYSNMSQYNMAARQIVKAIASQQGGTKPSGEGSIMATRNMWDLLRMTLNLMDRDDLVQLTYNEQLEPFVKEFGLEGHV
Described as above. The settings on record: both partners purified.

The term inhibition denotes the change of the read-out against control, counted positive when it falls. With `CC(N)(CC(=O)O)C(=O)O` (racemic) [MDLA, methyl-D-L-Aspartic acid], the inhibition at 1000 µM in experiment [1] was roughly 60%.

B1: LdPEX5, PTS1 receptor protein peroxin 5 of Leishmania donovani, recombinant (receptor)
chain: MDCNTGMQLGQQFSKDATMMHGGVPMSGAMSEQDALMVGAQVAGANPMMAAQWAQNFQQQQAMQAMRQQHEMEQAFQNSQQQQAAAAQSRQMLGMAGPQQQQFMAQQQQASMMNAAMMSQGMMAANMGLGMMMPRTQYQPLPNLSALQPKQQQPLANLAPAAQDSAWADQLSQQQWSTDYSQVQTFSAPGMEDKTVEERIKDSEFYKFMDQVKNKEVLIDEEKGELVQGPGPEVGVPEDAEYLRHWAEMEGLHMPESVFQSPPPASAMTSPENGDPDAYVKEMDMAANDVEDWAQEYAEMQERLQKVTNSTDYPFEPNNPYMFHDFPFDEGMEMLQLGNLAEAALAFEAVCHKDSSNEKAWQILGTTQAENEKDGLAIIALNNARKLNPRNLEVHAALSVSHTNERNADAAMDSLKAWLVNHPEYEQLASVSIPPNAELDVQETFFFADPSRMREARTLYEAAIEMNPSDSQLFTNLGVLHNVAHEFDEAAECFRKAVALHPDDPKMWNKLGATLANGGHPDQALEAYNRALDINPGYVRAMYNMAVAYSNMSQYNMAARQIVKAIASQQGGTKPSGEGSIMATRNMWDLLRMTLNLMDRDDLVQLTYNEQLEPFVKEFGLEGHV
B1: the Kd in experiment [2] was 5 nM.

B2: V5His-LdASS^WT, recombinant Leishmania donovani argininosuccinate synthase with N-terminal V5 epitope and hexahistidine tags (enzyme, UniProt H9BG20 1-418, looked up)
chain: MPATATEVVCGKKPRVVLAYSGGLDTSVIIPWLKENYDYEVIACCANVGQGAGEIDGLEEKAKKSGASKLYLLDLREEYVTDYIFPTLKAGATYEGKYMLGTSHARPLIAKHLVEVAHKEGAVAICHGATGKGNDQVRFELAVMALDPSLKCVAPWREWNIKSREDAIDYAEAHGVPVPCTKSDLYSRDRNLWHISHEGMDLEDPANEPAYARLLRLCNTVEKAPDEAEYVAVQFEKGIPVAVNGRKMSSVELVEELNALGGKHAIGIEDIVEDRLVGMKSRGVYETPAGTILYKALDMLESLCLDRDTQSFKRQSAVRFSELVYDGKWFTPLRESMSAMFDQMAETVTGEATLKLYKGNLVPAGAQSPYSLYNKNIASFGDSKHLYNHHDAEGFIRLFGLPLRVRSMMKAKEMPSSL
notes: Argininosuccinate synthase (LdASS) of Leishmania donovani strain Ld1S2D; predicted protein identical to L. infantum LinJ.23.0300 and L. donovani BPK282A1 CBZ34226.1; C-terminal Ser-Ser-Leu (PTS1) left free; Made from the pCRT7 plasmid with primers F3/R3 and ligated into pEXP-5-NT/TOPO; also called rLdASS WT, N-terminal tagged; pEXP5-V5HisLdASS^WT; source: E. coli BL21 (DE3) pLysS, purified …
With B2, the Kd in experiment [3] is roughly 5 nM.

B3: LdIMPDH, glycosomal PTS1 protein inosine monophosphate dehydrogenase of Leishmania donovani, recombinant (enzyme, UniProt P21620 1-514, looked up)
chain: MATNNANYRIKTIKDGCTAEELFRGDGLTYNDFIILPGFIDFGAADVNISGQFTKRIRLHIPIVSSPMDTITENEMAKTMALMGGVGVLHNNCTVERQVEMVKSVKAYRNGFISKPKSVPPNTPISNIIRIKEEKGISGILVTENGDPHGKLLGIVCTKDIDYVKNKDTPVSAVMTRREKMTVERAPIQLEEAMDVLNRSRYGYLPIVNENDEVVNLCSRRDAVRARDYPHSTLDKSGRLICAAATSTRPEDKRRVAALADVGVDVLVLDSSQGNTIYQIAFIKWVKSTYPHLEVVAGNVVTQDQAKNLIDAGADGIRIGMGSGSICITQEVLACGRPQGTAVYKVAQYCASRGVPCTADGGLRQVGDICKALAIGANCAMLGGMLSGTTETPGEYFFKGGVRLKVYRGMGSLEAMSQGKESGKRYLSENEAVQVAQGVSGNVVDKGSAAKLIAYVSKGLQQSAQDIGEISFDAIREKMYAGQVLFSRRSPTAQGEGGVHSLHSYEKKLFAAKM
notes: Inosine monophosphate dehydrogenase (LdIMPDH) of Leishmania donovani, with the C-terminal tripeptide PTS1 signal Ala-Lys-Met; construct not described here
In the case of B3, in experiment [3], the Kd is roughly 5 nM.
